What all share (assay): cell-based or functional assay
For assay [1], the target named is VSV-G fused with GFP11 at its C terminus (VSV-G-GFP11) (Vesicular Stomatitis Virus (Indiana strain)) (UniProt P03522).
Assay [2] has as its target superfolder GFP tagged VSV-G (VSV-G-sfGFP) (Vesicular Stomatitis Virus (Indiana strain)) (UniProt P03522).
Assay [3] has as its target VSV-G fused with GFP11 at its C terminus (VSV-G-GFP11) (Vesicular Stomatitis Virus (Indiana strain)) (UniProt P03522). The source holds these as a separate data set.

Where two headings read alike, the source gives them in different places.

“Cre recombinase fused with GFP1-10 (Cre-GFP1-10) (from UniProt P06956 1-343)”: the 293ColorSwitch cells switched to GFP was 66.9% in assay [1], 2.6% in assay [2] and > 80% in assay [3].

For the origin of these results see patent publication US20210309702A1.
